Like-named read-outs stand apart in the source and are kept apart here.

First the molecules themselves.
B3: human CD98hc (receptor)
chain: CRELPAQKWWHTGALYRIGDLQAFQGHGAGNLAGLKGRLDYLSSLKVKGLVLGPIHKNQKDDVAQTDLLQIDPNFGSKEDFDSLLQSAKKKSIRVILDLTPNYRGENSWFSTQVDTVATKVKDALEFWLQAGVDGFQVRDIENLKDASSFLAEWQNITKGFSEDRLLIAGTNSSDLQQILSLLESNKDLLLTSSYLSDSGSTGEHTKSLVTQYLNATGNRWCSWSLSQARLLTSFLPAQLLRLYQLMLFTLPGTPVFSYGDEIGLDAAALPGQPMEAPVMLWDESSFPDIPGAVSANMTVKGQSEDPGSLLSLFRRLSDQRSKERSLLHGDFHAFSAGPGLFSYIRHWDQNERFLVVLNFGDVGLSAGLQASDLPASASLPAKADLLLSTQPGREEGSPLELERLKLEPHEGLLLRFPYAA
notes: also called huCD98hc; CD98 heavy chain

One assay concerns the target T1, LLB2.10.8.4.12 (Homo sapiens (Human), UniProt P0DOX5 233-449 = IgG part; P0DOX5 233-449 = IgG part, T366W).
T1 construct: Fc parts only
Put plainly: SPR (Biacore). The gist of the method:
(§1)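 Binding affinity (Kd) of the engineered Fc polypeptides for CD98hc was measured by surface plasmon resonance on a Biacore instrument. Clones were cloned, expressed and purified as Fc-Fab fusions carrying anti-BACE1 Fabs. They were tested in a bivalent format or in a monovalent knob/hole format with the CD98hc-binding site on the knob chain only. The text gives no concentrations, temperature, buffer or replicate numbers.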

A further assay deals with T2, LLB2.10.8.2.1 (Homo sapiens (Human), UniProt P0DOX5 233-449 = IgG part; P0DOX5 233-449 = IgG part, T366W).
T2 construct: Fc parts only
Put plainly: SPR (Biacore). The method, boiled down: as §1

Another assay addresses T3, LLB2.10.8.10.1 (Homo sapiens (Human), UniProt P0DOX5 233-449 = IgG part; P0DOX5 233-449 = IgG part, T366W).
T3 construct: Fc parts only
Put plainly: SPR (Biacore). The gist of the method: as §1

The target of assay [1] is T4, LLB2-37 (monovalent, Table A6) (Homo sapiens (Human), UniProt P0DOX5 233-449 = IgG part; P0DOX5 233-449 = IgG part, T366W).
T4 construct: Fc parts only
Put plainly: SPR (Biacore). The gist of the method: as §1

The target in another assay is T5, LLB2.10.8.10.8 (Homo sapiens (Human), UniProt P0DOX5 233-449 = IgG part; P0DOX5 233-449 = IgG part, T366W).
T5 construct: Fc parts only
Description: SPR (Biacore). The gist of the method:
as §1

The next assay deals with T6, LLB2-10-8-d1 MV (Homo sapiens (Human), UniProt P0DOX5 233-449 = IgG part; P0DOX5 233-449 = IgG part, T366W).
T6 construct: Fc parts only; MV = monovalent
Description: SPR (Biacore). The method, boiled down: as §1

Another assay deals with T7, LLB2-10-6 Mono (Homo sapiens (Human), UniProt P0DOX5 233-449 = IgG part; P0DOX5 233-449 = IgG part, T366W).
T7 construct: Fc parts only
Put plainly: SPR (Biacore). The method, boiled down:
as §1

Another assay deals with T8, LLB2-10-8-d3 MV (Homo sapiens (Human), UniProt P0DOX5 233-449 = IgG part; P0DOX5 233-449 = IgG part, T366W).
T8 construct: Fc parts only; MV = monovalent
Put plainly: SPR (Biacore). The gist of the method:
as §1

In another assay the target is T9, LLB2.10.8.10.3 (Homo sapiens (Human), UniProt P0DOX5 233-449 = IgG part; P0DOX5 233-449 = IgG part, T366W).
T9 construct: Fc parts only
Description: SPR (Biacore). The gist of the method:
as §1

Another assay concerns the target T10, LLB2.10.8.12.5 (Homo sapiens (Human), UniProt P0DOX5 233-449 = IgG part; P0DOX5 233-449 = IgG part, T366W).
T10 construct: Fc parts only
Put plainly: SPR (Biacore). The gist of the method: as §1

The assay “human CD98hc” concerns the target B3. Description: affinity as listed in study design table; method not given there.
Assay [2] has as its target T11, Clone 8: LLB2-10-6 monovalent, non-binding Fabs (Homo sapiens (Human), UniProt P0DOX5 233-449 = IgG part; P0DOX5 233-449 = IgG part, T366W).
T11 construct: CD98hc site on the knob Fc only; effector positive
Described as above.

Assay [3] concerns the target T12, Clone 18: LLB2-37 monovalent, non-binding Fabs (Homo sapiens (Human), UniProt P0DOX5 233-449 = IgG part; P0DOX5 233-449 = IgG part, T366W).
T12 construct: CD98hc site on the knob Fc only; effector positive
The assay is described as above.

In assay [4] the target is T11, Clone 8: LLB2-10-6 monovalent, …. The assay is described as above. This is another data set of the same source.
Assay [5] shares this target. The assay is described as above. This is another data set of the same source.
Assay [6] concerns the target T13, Clone 13: LLB1-3-16 monovalent, non-binding Fabs (Homo sapiens (Human), UniProt P0DOX5 233-449 = IgG part; P0DOX5 233-449 = IgG part, T366W).
T13 construct: CD98hc site on the knob Fc only; effector positive
The description is as above.

Assay [7] addresses T11, Clone 8: LLB2-10-6 monovalent, …. Described as above. This is another data set of the same source.
Assay [8] has as its target T14, circularly permuted human TfR apical domain (human).
T14 construct: TfR residues 326-379 stand N-terminal to 194-296, loop 297-325 deleted; also called huTfR Apical Domain
T14 chain: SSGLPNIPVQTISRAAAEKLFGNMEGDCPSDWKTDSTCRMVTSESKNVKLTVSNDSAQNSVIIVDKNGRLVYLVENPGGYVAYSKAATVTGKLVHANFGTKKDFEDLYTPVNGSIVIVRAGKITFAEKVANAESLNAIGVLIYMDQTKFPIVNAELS
Put plainly: Biacore SPR, Fc-Fab fusion.

The target in assay [9] is T14, circularly permuted human TfR apical …. Put plainly: Biacore SPR, Fc-Fab fusion; bivalent, LALA.

B1: human CD98hc (receptor)
chain: CRELPAQKWWHTGALYRIGDLQAFQGHGAGNLAGLKGRLDYLSSLKVKGLVLGPIHKNQKDDVAQTDLLQIDPNFGSKEDFDSLLQSAKKKSIRVILDLTPNYRGENSWFSTQVDTVATKVKDALEFWLQAGVDGFQVRDIENLKDASSFLAEWQNITKGFSEDRLLIAGTNSSDLQQILSLLESNKDLLLTSSYLSDSGSTGEHTKSLVTQYLNATGNRWCSWSLSQARLLTSFLPAQLLRLYQLMLFTLPGTPVFSYGDEIGLDAAALPGQPMEAPVMLWDESSFPDIPGAVSANMTVKGQSEDPGSLLSLFRRLSDQRSKERSLLHGDFHAFSAGPGLFSYIRHWDQNERFLVVLNFGDVGLSAGLQASDLPASASLPAKADLLLSTQPGREEGSPLELERLKLEPHEGLLLRFPYAA
notes: as for B3
As to B1, the Kd is 15 nM with LLB2.10.8.4.12; 110 nM with LLB2.10.8.2.1; 54 nM with LLB2.10.8.10.1; 390 nM in assay [1]; 94 nM with LLB2.10.8.10.8; 250 nM with LLB2-10-8-d1 MV. The Kd with LLB2-10-6 Mono is 420 nM; in the assay with LLB2-10-8-d3 MV it was 470 nM; with LLB2.10.8.10.3, 43 nM; with LLB2.10.8.12.5 it was 230 nM.

B2: Clone 27: LLB2-10-8 monovalent, non-binding Fabs, LALAPG (Fc fusion)
chain 1: APEAAGGPSVFLFPPKPKDTLMISRTPEVTCVVVDVSHEDPEVKFNWYVDGVEVHNAKTKPREEQYNSTYRVVSVLTVLHQDWLNGKEYKCKVSNKALGAPIEKTISKAKGQPREPQVYTLPPSRDELTKNQVSLWCLVKGFYPSDIAVLWNSRFVLENNYKTTPPVLDSDGSFFLYSKLTVDKSRWQQGEIFACNVYHEALHNHYTFKNLALSPGK
chain 2: APEAAGGPSVFLFPPKPKDTLMISRTPEVTCVVVDVSHEDPEVKFNWYVDGVEVHNAKTKPREEQYNSTYRVVSVLTVLHQDWLNGKEYKCKVSNKALGAPIEKTISKAKGQPREPQVYTLPPSRDELTKNQVSLSCAVKGFYPSDIAVEWESNGQPENNYKTTPPVLDSDGSFFLVSKLTVDKSRWQQGNVFSCSVMHEALHNHYTQKSLSLSPGK
notes: effector negative (LALAPG)
As to B2, the Kd with human CD98hc lay in the range of 100 to 200 nM.

On to B3, for which the Kd is 260 nM in [2]; 390 nM in assay [3]; 260 nM in assay [4]; 260 nM in assay [5]; 32 nM in [6]; 230 nM in assay [7].

B4: 6.5.11.1 bivalent (Fc fusion)
chain: APELLGGPSVFLFPPKPKDTLMISRTPEVTCVVVDVSHEDPEVKFNWYVDGVEVHNAKTKPREEQYNSTYRVVSVLTVLHQDWLNGKEYKCKVSNKALPAPIEKTISKAKGQPREPQVYTLPPSRDELTKNQVSLTCLVKGFYPSDIAVNWFSNGQIENNYKTTPPVLDSDGSFFLYSKLTVDKSRWQQGNLFACEVMHEALHNHYTYKLLSLSPGK
notes: also called Clone 6.5.11.1 bivalent
B4 returned a Kd in [8] of 20000 to 40000 nM.

B5: 6.5.11.5.42 bivalent (Fc fusion)
chain: APEAAGGPSVFLFPPKPKDTLMISRTPEVTCVVVDVSHEDPEVKFNWYVDGVEVHNAKTKPREEQYNSTYRVVSVLTVLHQDWLNGKEYKCKVSNKALPAPIEKTISKAKGQPREPQVYTLPPSRDELTKNQVSLTCLVKGFYPSDIAVYWFSGGQRENNYKTTPPVLDSDGSFFLYSKLTVDKSRWQQGNLFACEVMHEALHNHYTYKLLSLSPGK
notes: both Fc with LALA
In [9], B5 showed a Kd of 2000 nM.

The values are drawn from patent US20250145729A1 (DENALI THERAPEUTICS, published 2025).
